Tests used:
[1] = tested on: HSCs (cKIT+lineage-SCA1+CD27+FLK2- cells); assay: HSC mobilization to the blood in mice (perfused blood, flow cytometry); assay type: in vivo, mouse
Protocol: FIG. 1A: Experimental design for 2-hour HSC mobilization with sildenafil citrate plus AMD3100 (top), or 5-day GCSF treatment (bottom). GCSF was administered to mice once daily for 4 days (250 μg/kg). Sildenafil citrate was administered via oral gavage (OG; 3 mg/kg) once, 1 hr prior to a single subcutaneous (SQ) injection of AMD3100 (2.5 mg/kg). […]
FIG. 2E: Experimental design for HSC mobilization with multiple daily doses of sildenafil citrate. Sildenafil citrate was administered orally (OG) at 10 mg/kg once daily for 3 days. AMD3100 (2.5 mg/kg-5 mg/kg) was injected subcutaneously (SQ) 1 hour after the third sildenafil citrate dose, followed 1 hour later by blood perfusion and analysis.
Mobilization/tissue isolation. Mice were treated with subcutaneous (SQ) injections of rhGCSF (Amgen, Thousand Oaks, CA, 250 μg/kg) or a single dose of AMD3100 (Sigma, 2.5 mg/kg or 5 mg/kg where specified), or by oral gavage (OG) with sildenafil citrate (Viagra®; Sigma; 3, 10 or 30 mg/kg) (Motta et al., 2015) as indicated. Maximum blood was obtained by perfusing the mouse with PBS/20 mM EDTA through the left ventricle, clipping the right atrium and collecting the pooled perfused blood in the chest cavity. The total blood was processed for cell counts and flow cytometry analysis, as described previously (Smith-Berdan et al., 2011, 2015). Briefly, cells were pelleted by centrifugation, washed with 2% donor calf serum in PBS to remove EDTA, then incubated with fluorescently conjugated antibodies for flow cytometry analysis or resuspended in HBSS for transplantation into conditioned recipients.
(§1) Flow cytometry. Cell labeling was performed on ice in 1× PBS with 5 mM EDTA and 2% serum. Antibodies used are listed in the supplemental table. Samples were analyzed for donor chimerism (detectable by either GFP or antibodies targeted at the CD45.1/2 locus) on an LSRII or AriaIII (Becton Dickinson, San Jose, CA), as described previously (Beaudin et al., 2016; Boyer et al., 2011, 2019; Leung et al., 2019; Smith-Berdan et al., 2011, 2015; Ugarte et al., 2015).

[2] = tested on: HSCs; assay: Transplantation of mobilized blood into irradiated recipients (reconstitution, donor chimerism); assay type: in vivo, mouse; conditions: compared to sildenafil citrate plus AMD3100; total donor chimerism 20 weeks post-transplantation
Description: FIG. 1E: Donor chimerism over 5 months in lethally irradiated mice transplanted with blood from mice mobilized with AMD3100 alone or with both sildenafil citrate and AMD3100 as in the schedule shown in FIG. 1A. UBC-GFP mice were used as the mobilized donor mice, enabling identification of donor derived (GFP+) cells versus the unlabeled cells of the wild-type recipients. N=5-7 mice per cohort in 3 independent experiments. Paired t-test; *p<0.05 and **p<0.01.
FIGS. 11 and 1J: Long-term multilineage engraftment upon serial transplantation of bone marrow cells from the primary recipients in FIGS. 1E-1H into secondary, lethally irradiated wt hosts. Total donor chimerism in the peripheral blood over the course of the experiment is shown on the left. Quantification of donor-derived B, T and GM cells, platelets and erythrocytes 20 weeks post-transplantation is shown on the right. Data represent three independent experiments, N=9-12 mice per cohort. Unpaired t-test; *p<0.05, **p<0.01, ***p<0.001.
Transplantation of mobilized HSPCs. […]
as §1, with “Cell labeling was performed on ice in 1× PBS with 5 mM EDTA and 2% serum. Antibodies used are listed in the supplemental table.” left out

Molecule	increase of numbers of phenotypic HSCs compared to control mice ([1]; AMD3100 single SQ injection alone or plus a single oral sildenafil citrate dose (2-hour protocol), total perfused blood) [fold]	numbers of HSCs in the blood 4 hrs post-treatment ([1]; perfusion and blood analysis 4 hours post AMD3100)	HSC mobilization ([1]; single subcutaneous dose)	numbers of phenotypic HSCs in the blood compared to sildenafil citrate plus AMD3100 ([1]; 5-day GCSF protocol)	numbers of HSCs in the bloodstream ([1]; 1 day after four consecutive days of G-CSF injections)	mobilization of HSCs and/or HPCs ([1]; FIGS. 2P and 2Q, GCSF 250 μg/kg for 4 days, AMD3100 5 mg/kg for 1 hour)	reconstitution of recipients by blood from mobilized donors [2]
c1cc(CN2CCCNCCNCCCNCC2)ccc1CN1CCCNCCNCCCNCC1 [AMD3100, reference compound]	2.9	return to steady-state levels	modest, but reproducible, HSC mobilization	–	–	–	–
G-CSF: granulocyte-colony stimulating factor, rhGCSF (Amgen), standard mobilizing agent (protein, UniProt P09919 31-207, looked up) Granulocyte …: TPLGPASSLPQSFLLKCLEQVRKIQGDGAALQEKLVSECATYKLCHPEELVLLGHSLGIPWAPLSSCPSQALQLAGCLSQLHSGLFLYQGLLQALEGISPELGPTLDTLQLDVADFATTIWQQMEELGMAPALQPTQGAMPAFASAFQRRAGGVLVASHLQSFLEVSYRVLRHLAQP	–	–	–	did not lead to significantly higher numbers of phenotypic HSCs	~3,400 HSCs/mouse	effectively mobilizes HSCs and/or HPCs	reconstituted recipients more robustly

Source: US12059437B2, “Methods and compositions for hematopoietic stem cell mobilization” (The Regents of the University of California, priority 2019, dated 2024)
